The subject of one data set is non-diseased rat BAL. The conditions noted are these: cited from earlier work.
The test system of data set [1] is mouse models of injury, Marfan's syndrome, and muscular dystrophy. The conditions noted are these: in vivo; cited from earlier work.
For data set [2] the following is noted: human, in vivo; cited from earlier work.
The subject of another data set is human patients. The note with it: in vivo; cited from earlier work.
Data set [3] deals with MBT2 tumors, intratumoral immune cells. In words: MBT2 tumor immune contexture (flow cytometry, IHC, qPCR). The conditions noted are these: mouse, in vivo. The text has this: To study the immune effects of anti-PD-1 or AB6-mIgG1 treatment as single agents or in combination, MBT-2 tumors were harvested from mice 10 days after treatment initiation and then subjected to immunohistochemical and flow cytometry analyses of select immune cell markers. […] The relevance of this increase in Treg cells is unclear given the significant anti-tumor effects observed with combination treatment. […] This appears to be due to selective reduction in CD11b+CD206+ and CD11b+Gr1+ subpopulations, which correspond to immunosuppressive M2-like macrophages and myeloid-derived suppressor cells (MDSC), respectively. Collectively, the representation of these two populations of cells is reduced from an average of 47% of the CD45+ cell population to 14% after combination treatment (FIG. 34B).
Each study group contained 12 mice with MBT2 tumors as described herein. Ab6-treatment group received the antibody weekly, on day 1 and day 8, at 10 mg/kg. […]
Tumor-associated immune cell subsets were also analyzed by tumor flow cytometry in MBT-2 tumors. […] Flow cytometry was performed on a Attune NxT (ThermoFisher) and analyzed with FlowJo (BD Bioscience).
For immunohistochemical analysis, tumors from six animals were cut in halves and fixed. […] FIG. 36E provides the quantitation of the IHC data, shown as % of CD8-positive cells of total nuclei. […]
Background: Flow cytometry measures light scatter and fluorescence of single cells or particles in a stream.

Data set [4] has as its target T1, recombinant human GARP-proTGFβ1 complex (Homo sapiens, UniProt P01137).
T1 construct: made in house
In words: Octet (Biolayer Interferometry) in vitro kinetic binding. The conditions noted are these: in M. The source says: (§1) Biolayer Interferometry (BLI):BLI is a label-free technology for optically measuring biomolecular interactions, e.g., between a ligand immobilized on the biosensor tip surface and an analyte in solution. BLI provides the ability to monitor binding specificity, rates of association and dissociation, or concentration, with precision and accuracy. BLI platform instruments are commercially available, for example, from ForteBio and are commonly referred to as the Octet® System.
(§2) BLI-based binding assays are widely used in the art for measuring affinities and kinetics of antibodies to antigens. It is a label-free technology in which biomolecular interactions are analyzed on the basis of optical interference. One of the proteins, for example, an antibody being tested, can be immobilized on the biosensor tip. When the other protein in solution, for example, an antigen, becomes bound to the immobilized antibody, it causes a shift in the interference pattern, which can be measured in real-time. This allows the monitoring of binding specificity, rates of association and dissociation, as well as concentration dependency. […] Due to its ease of use and fast results, BLI-based assays such as the Octet® system (available from ForteBio/Molecular Devices, Fremont Calif.), are particularly convenient when used as an initial screening method to identify and separate a pool of “binders” from a pool of “non-binders” or “weak binders” in the screening process.
(§3) Table 8 below provides non-limiting examples of high-affinity, context-independent proTGFβ1 antibodies encompassed by the present invention. The table provides representative results from in vitro binding assays, as measured by Octet®.
(§4) Column (A) of the table lists monoclonal antibodies with discrete amino acid sequences. […] Columns (B), (D), (E) and (F) provide affinities of each of the listed antibodies, measured in KD. […] Average KD values of (B) and (C) are shown in the corresponding column (D), which collectively represents affinities of the antibodies to ECM- or matrix-associated proTGFβ1 complexes. Similarly, Average KD values of (E) and (F) are shown in the corresponding column (G), which collectively represents affinities of the antibodies to cell-surface or cell-associated proTGFβ1 complexes. Finally, relative ratios between the average KD values from columns (D) and (G) are expressed as “fold bias” in column (H). Thus, the greater the number of column (H) is, the greater bias exists for the particular antibody, when comparing binding preferences of the antibody for matrix-associated complexes and cell-surface complexes. This is one way of quantitatively representing and comparing inherent bias of antibodies to their target complexes. Such analyses may be useful in guiding the selection process for a candidate antibody for particular therapeutic use.
(§5) In some embodiments, the binding affinity of an antibody, or antigen binding portion thereof, to an antigen (e.g., protein complex), such as presenting molecule-proTGFβ1 complexes, is determined using an Octet assay. In some embodiments, an Octet assay is an assay that determines one or more a kinetic parameters indicative of binding between an antibody and antigen. In some embodiments, an Octet® system (ForteBio, Menlo Park, Calif.) is used to determine the binding affinity of an antibody, or antigen binding portion thereof, to presenting molecule-proTGFβ1 complexes. For example, binding affinities of antibodies may be determined using the fortéBio Octet QKe dip and read label free assay system utilizing bio-layer interferometry. In some embodiments, antigens are immobilized to biosensors (e.g., streptavidin-coated biosensors) and the antibodies and complexes (e.g., biotinylated presenting molecule-proTGFβ1 complexes) are presented in solution at high concentration ([…]) to measure binding interactions. […]
For orientation: Biolayer interferometry detects binding as a change in optical thickness at a sensor tip.

Data set [5] concerns the target T2, recombinant human LRRC33-proTGFβ1 complex (Homo sapiens, UniProt P01137).
T2 construct: made in house
The description is as above. The note with it: in M.
Source text: as §1, §2, §3, §4, §5

For data set [6], the target named is T3, recombinant human LTBP3-proTGFβ1 complex (Homo sapiens, UniProt P01137).
T3 construct: made in house; host or cells: Expi293F cells, transient co-transfection
Described as above. The note with it: in M.
Source text: as §1, §2, §3, §4, §5

Data set [7] concerns the target T4, recombinant human LTBP1-proTGFβ1 complex (Homo sapiens, UniProt P01137).
T4 construct: made in house; host or cells: Expi293F cells, transient co-transfection
Described as above. The note with it: in M.
Source text: as §1, §2, §3, §4, §5

The test system of data set [8] is matrix-associated (LTBP1/LTBP3) and cell-associated (GARP/LRRC33) proTGFβ1 complexes. In words: Octet: average KD and fold bias, matrix- vs cell-associated complexes. The conditions noted are these: average KD of (B) and (C), read-out: (D) ECM AVRG. The data set is classed as binding, human.
Data set [9] shares this test system. The data set is described as above. The data set is classed as binding, human. The conditions noted are these: for Kd: average KD of (E) and (F), cell-associated complexes, read-out: (G) Cell AVRG; for (H) G/D (fold bias): ratio of average KD cell-associated / matrix-associated. The text has this:
Column (A) of the table lists monoclonal antibodies with discrete amino acid sequences. […] Columns (B), (D), (E) and (F) provide affinities of each of the listed antibodies, measured in KD. […] Average KD values of (B) and (C) are shown in the corresponding column (D), which collectively represents affinities of the antibodies to ECM- or matrix-associated proTGFβ1 complexes. Similarly, Average KD values of (E) and (F) are shown in the corresponding column (G), which collectively represents affinities of the antibodies to cell-surface or cell-associated proTGFβ1 complexes. Finally, relative ratios between the average KD values from columns (D) and (G) are expressed as “fold bias” in column (H). […] This is one way of quantitatively representing and comparing inherent bias of antibodies to their target complexes.
Average KD values between the two matrix-associated and cell-associated complexes are calculated, respectively (see columns (D) and (G)). These average KD values can then be used to ask whether bias in binding activities exists between complexes associated with matrix vs. complexes associated with cell surface (e.g., immune cells). Bias may be expressed as “fold-difference” in the average KD values, as illustrated in Table 8.

Substitutions are numbered along the chain they refer to. Like-named read-outs stand apart in the source and are kept apart here.

Results on 7 molecules are retold here after patent publication US11130803B2, “Isoform-selective TGFβ1 inhibitors and use thereof” (Scholar Rock, Inc., priority 2018, dated 2021).

T2 sequence (P01137 30-390): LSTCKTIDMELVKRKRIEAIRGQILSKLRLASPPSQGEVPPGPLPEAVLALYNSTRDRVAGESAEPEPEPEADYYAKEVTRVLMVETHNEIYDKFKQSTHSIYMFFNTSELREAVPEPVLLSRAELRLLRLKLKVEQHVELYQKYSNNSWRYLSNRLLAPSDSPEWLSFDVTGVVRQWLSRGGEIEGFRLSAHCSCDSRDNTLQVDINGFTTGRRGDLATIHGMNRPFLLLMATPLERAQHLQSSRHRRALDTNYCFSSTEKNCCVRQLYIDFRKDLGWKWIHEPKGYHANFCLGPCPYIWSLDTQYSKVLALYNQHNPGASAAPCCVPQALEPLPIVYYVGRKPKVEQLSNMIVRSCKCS
T2 sequence (Q86YC3 19-650 partner limits assumed): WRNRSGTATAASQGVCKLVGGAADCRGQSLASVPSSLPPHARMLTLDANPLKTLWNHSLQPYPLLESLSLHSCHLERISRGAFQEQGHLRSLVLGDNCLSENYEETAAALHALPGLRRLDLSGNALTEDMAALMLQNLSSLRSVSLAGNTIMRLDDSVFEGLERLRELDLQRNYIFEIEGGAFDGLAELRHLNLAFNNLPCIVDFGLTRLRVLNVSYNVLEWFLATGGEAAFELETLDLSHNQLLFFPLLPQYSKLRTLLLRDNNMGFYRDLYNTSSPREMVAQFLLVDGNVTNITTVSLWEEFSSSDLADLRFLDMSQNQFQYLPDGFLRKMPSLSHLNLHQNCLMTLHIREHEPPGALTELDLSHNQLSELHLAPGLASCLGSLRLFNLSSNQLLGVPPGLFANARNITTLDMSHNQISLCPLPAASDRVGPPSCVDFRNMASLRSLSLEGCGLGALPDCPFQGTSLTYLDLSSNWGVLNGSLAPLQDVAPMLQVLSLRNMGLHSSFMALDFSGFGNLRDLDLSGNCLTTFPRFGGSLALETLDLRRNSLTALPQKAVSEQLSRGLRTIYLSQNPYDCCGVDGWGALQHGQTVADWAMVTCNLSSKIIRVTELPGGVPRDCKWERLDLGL
T4 sequence (P01137 30-390): as the sequence (P01137 30-390) above
T4 sequence (Q14766 873-1507 partner): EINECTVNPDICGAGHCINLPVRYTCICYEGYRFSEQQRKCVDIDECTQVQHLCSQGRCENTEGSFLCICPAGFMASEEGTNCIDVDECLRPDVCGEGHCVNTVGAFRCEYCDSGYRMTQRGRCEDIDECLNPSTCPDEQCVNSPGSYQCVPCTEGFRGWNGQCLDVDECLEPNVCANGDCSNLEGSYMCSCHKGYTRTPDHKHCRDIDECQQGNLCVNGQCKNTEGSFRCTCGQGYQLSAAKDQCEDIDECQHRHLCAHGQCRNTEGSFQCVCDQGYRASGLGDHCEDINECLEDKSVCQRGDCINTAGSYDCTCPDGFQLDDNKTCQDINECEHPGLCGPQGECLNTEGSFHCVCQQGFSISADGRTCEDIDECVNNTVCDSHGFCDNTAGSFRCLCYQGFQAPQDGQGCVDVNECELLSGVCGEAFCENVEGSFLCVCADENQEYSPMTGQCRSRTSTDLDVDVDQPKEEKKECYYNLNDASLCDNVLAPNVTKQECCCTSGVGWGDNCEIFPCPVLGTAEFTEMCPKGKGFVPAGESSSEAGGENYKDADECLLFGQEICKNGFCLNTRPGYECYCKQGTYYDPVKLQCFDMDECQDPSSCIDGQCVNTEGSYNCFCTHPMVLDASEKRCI
T3 sequence (P01137 30-390): as the sequence (P01137 30-390) above
T3 sequence (Q9NS15 866-1039 partner limits assumed): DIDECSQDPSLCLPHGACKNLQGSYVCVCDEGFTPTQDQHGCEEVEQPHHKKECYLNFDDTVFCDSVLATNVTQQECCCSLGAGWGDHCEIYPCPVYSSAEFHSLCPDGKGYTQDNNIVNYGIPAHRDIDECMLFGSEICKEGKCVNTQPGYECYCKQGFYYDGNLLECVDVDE
T1 sequence (P01137 30-390): as the sequence (P01137 30-390) above
T1 sequence (Q14392 20-627 partner limits assumed): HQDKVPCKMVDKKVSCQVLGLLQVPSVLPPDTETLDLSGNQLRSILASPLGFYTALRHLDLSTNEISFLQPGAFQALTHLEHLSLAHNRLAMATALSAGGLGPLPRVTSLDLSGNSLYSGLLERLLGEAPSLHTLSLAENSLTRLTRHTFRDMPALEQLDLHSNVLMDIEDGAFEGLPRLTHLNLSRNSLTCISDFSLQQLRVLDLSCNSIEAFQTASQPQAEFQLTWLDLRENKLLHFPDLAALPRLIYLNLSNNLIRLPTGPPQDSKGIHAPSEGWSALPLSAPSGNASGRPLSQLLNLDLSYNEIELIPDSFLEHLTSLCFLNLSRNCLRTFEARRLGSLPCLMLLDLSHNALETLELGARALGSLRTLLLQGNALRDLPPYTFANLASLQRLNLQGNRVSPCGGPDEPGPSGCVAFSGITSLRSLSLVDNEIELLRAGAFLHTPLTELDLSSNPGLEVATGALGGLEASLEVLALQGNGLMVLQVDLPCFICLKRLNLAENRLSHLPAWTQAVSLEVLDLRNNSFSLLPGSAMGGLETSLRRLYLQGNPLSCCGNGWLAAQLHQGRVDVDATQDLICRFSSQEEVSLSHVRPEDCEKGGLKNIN

Consider `c1ccc(-c2nn3c(c2-c2ccnc4cc(OCCN5CCOCC5)ccc24)CCC3)nc1` [LY2109761], for which the “TGFβ downstream tonic signaling” value in the data set with non-diseased rat BAL was “inhibit TGFβ downstream tonic signaling”.
With `Cc1ccc(C(=O)Nc2ccc(S(=O)(=O)O)c3cc(S(=O)(=O)O)cc(S(=O)(=O)O)c23)cc1NC(=O)c1cccc(NC(=O)Nc2cccc(C(=O)Nc3cc(C(=O)Nc4ccc(S(=O)(=O)O)c5cc(S(=O)(=O)O)cc(S(=O)(=O)O)c45)ccc3C)c2)c1` [suramin], the “muscle pathology and fibrosis” value in data set [1] is “effective in improving muscle pathology and reducing fibrosis”.
For the molecule `CCCCc1nc(Cl)c(CO)n1Cc1ccc(-c2ccccc2-c2nn[nH]n2)cc1` [losartan], the “muscle pathology and fibrosis” value in data set [1] is “effective in improving muscle pathology and reducing fibrosis”.
As to “GC1008: human analog of 1D11; pan-TGFβ antibody”, in data set [2], the “Exposure: DN Cmax” value was “DN Cmax ~(350 ng/mL)mg (ng/mL)mg” and the “Exposure: Half life” value is listed as “Half life: 21.7 d”. Moreover, the “previously reported adverse events” value with human patients was “leukocytosis (grade 3), fatigue (grade 3), hypoxia (grade 3), asystole (grade 5), leukopenia (grade 1), recurrent, transient, tender erythematous, nodular skin lesions, suppurative dermatitis, and herpes zoster”.

B1: Ab6-mIgG1: chimeric antibody with the human V domains of Ab6 fused to mouse IgG1/kappa constant domains (protein)
heavy chain: EVQLVESGGGLVQPGGSLRLSCTASGFTFSSFSMDWVRQAPGKGLEWVSYISPSADTIYYADSVKGRFTISRDNAKNTLYLQMNSLRAEDTAVYYCARGVLDYGDMLMPWGQGTLVTVSS
light chain: DIQMTQSPSSLSASVGDRVTITCQASQDITNYLNWYQQKPGKAPKLLIYDASNLETGVPSRFSGSGSGTDFTFTISSLQPEDIATYYCQQADNHPPWTFGGGTKVEIK
Turning to B1, the “phospho-Smad3 staining at tumor vascular endothelium (IHC)” value in data set [3] was “much diminished”.

B2: Ab17: monoclonal antibody; VH SEQ ID NO: 248, VL SEQ ID NO: 241 (antibody, V domains shown)
VH: EVQLLESGGGVVQPGGSLRLSCAASGFTFSSFAMTWVRQAPGKGLEWVSAISGSGAATYFADSVKGRFTISRDNSKNTLYLQMNSLRAEDTAVYYCARVSSGHWDFDYWGQGTLVTVSS
VL: DIQLTQSPSSLSASVGDRVTITCRASQSISSYLNWYQQKPGKAPKLLIYAASNLQSGVPSRFSGSGSGTDFTLTISSLQPEDFATYYCQQTYTVPLTFGGGTKVEIK
Turning to B2, the “(E) hGARP, Cell-associated proTGFb1 (KD)” value in data set [4] is recorded as 8.62E−09. Besides, in data set [5], the “(F) hLRRC33, Cell-associated proTGFb1 (KD)” value is listed as 6.58E−10. For the same molecule, the “(C) hLTBP3, Matrix-associated proTGFb1 (KD)” value in data set [6] is reported as 2.08E−10. Also, the “(B) hLTBP1, Matrix-associated proTGFb1 (KD)” value in [7] was determined as 1.74E−10. Also, in [8], the Kd amounted to 0.191 nM. In [9], the Kd stood at 4.64 nM and the “(H) G/D (fold bias)” value worked out at 24.288 fold.

B3: Ab18: monoclonal antibody; VH SEQ ID NO: 249, VL SEQ ID NO: 241 (antibody, V domains shown)
VH: B2 VH with E1Q, L5V, G16R, S31D, F32Y, T35V, R98T
VL: B2 VL
For B3, the “(E) hGARP, Cell-associated proTGFb1 (KD)” value in data set [4] was found to be 1.15E−08. Besides, the “(F) hLRRC33, Cell-associated proTGFb1 (KD)” value in [5] amounted to 1.02E−09. In data set [6], the “(C) hLTBP3, Matrix-associated proTGFb1 (KD)” value was 2.57E−10. Also, in data set [7], the “(B) hLTBP1, Matrix-associated proTGFb1 (KD)” value was determined as 3.12E−10. For the same molecule, the Kd is 0.284 nM in [8] and 6.26 nM in [9]. In addition, the “(H) G/D (fold bias)” value in [9] was found to be 22.00 fold.
